{
  "source": "patent US20200024330A1",
  "binders": {"B1": {"name": "PGT-126 (antibody, V domains shown)", "VH": "QPQLQESGPGLVEASETLSLTCTVSGDSTAACDYFWGWVRQPPGKGLEWIGGLSHCAGYYNTGWTYHNPSLKSRLTISLDTPKNQVFLKLNSVTAADTAIYYCARFDGEVLVYHDWPKPAWVDLWGRGTLVTVSS", "VL": "QSALTQPPSASGSPGQSISISCTGTSNRFVSWYQQHPGKAPKLVIYGVNKRPSGVPDRFSGSKSGNTASLTVSGLQTDDEAVYYCSSLVGNWDVIFGGGTKLTVL"}},
  "key": {"[1]": {"target": "WT JR-FL gp120 (HIV-1 (isolate JR-FL))", "test": "ELISA on coated gp120; EC50 by nonlinear regression"}, "[2]": {"target": "JR-FL gp120 ΔV1/ΔV2 (HIV-1 (isolate JR-FL))", "test": "ELISA on coated gp120; EC50 by nonlinear regression"}, "[3]": {"target": "HIV-1 JR-CSF Env N386A (HIV-1 isolate JR-CSF) (UniProt P20871)", "test": "cell-based or functional assay"}, "[4]": {"target": "HIV-1 JR-CSF Env N301A (HIV-1 JR-CSF) (UniProt P20871)", "test": "cell-based or functional assay"}, "[5]": {"target": "HIV-1 JR-CSF Env S334A (HIV-1 isolate JR-CSF) (UniProt P20871)", "test": "cell-based or functional assay"}, "[6]": {"target": "Env of the clade F HIV-1 pseudoviruses of the cross-clade 162-pseudovirus panel (n = 15)", "test": "cell-based or functional assay"}, "[7]": {"target": "Env of the clade D HIV-1 pseudoviruses of the cross-clade 162-pseudovirus panel (n = 25)", "test": "cell-based or functional assay"}, "[8]": {"target": "HIV-1 JR-CSF Env T297A (HIV-1 JR-CSF) (UniProt P20871)", "test": "cell-based or functional assay"}, "[9]": {"target": "Env of the clade G HIV-1 pseudoviruses of the cross-clade 162-pseudovirus panel (n = 15)", "test": "cell-based or functional assay"}, "[10]": {"target": "HIV-1 JR-CSF Env H330A (HIV-1 isolate JR-CSF) (UniProt P20871)", "test": "cell-based or functional assay"}, "[11]": {"target": "HIV-1 JR-CSF Env S393A (HIV-1 (isolate JR-CSF)) (UniProt P20871)", "test": "cell-based or functional assay"}, "[12]": {"target": "HIV-1 JR-CSF Env T341A (HIV-1 isolate JR-CSF) (UniProt P20871)", "test": "cell-based or functional assay"}, "[13]": {"target": "HIV-1 JR-CSF Env I420A (HIV-1 (isolate JR-CSF)) (UniProt P20871)", "test": "cell-based or functional assay"}, "[14]": {"target": "HIV-1 JR-CSF Env T394A (HIV-1 (isolate JR-CSF)) (UniProt P20871)", "test": "cell-based or functional assay"}, "[15]": {"target": "HIV-1 JR-CSF Env R315A (HIV-1 isolate JR-CSF) (UniProt P20871)", "test": "cell-based or functional assay"}, "[16]": {"target": "HIV-1 JR-CSF Env N295A (HIV-1 JR-CSF) (UniProt P20871)", "test": "cell-based or functional assay"}, "[17]": {"target": "HIV-1 JR-CSF Env S199A (HIV-1 JR-CSF) (UniProt P20871)", "test": "cell-based or functional assay"}, "[18]": {"target": "HIV-1 JR-CSF Env R350A (HIV-1 isolate JR-CSF) (UniProt P20871)", "test": "cell-based or functional assay"}, "[19]": {"target": "HIV-1 JR-CSF Env R419A (HIV-1 (isolate JR-CSF)) (UniProt P20871)", "test": "cell-based or functional assay"}, "[20]": {"target": "HIV-1 JR-CSF Env T320A (HIV-1 isolate JR-CSF) (UniProt P20871)", "test": "cell-based or functional assay"}, "[21]": {"target": "HIV-1 Env of isolate MGRM-C-026 (HIV-1)", "test": "cell-based or functional assay"}, "[22]": {"target": "HIV-1 JR-CSF Env I307A (HIV-1 JR-CSF) (UniProt P20871)", "test": "cell-based or functional assay"}, "[23]": {"target": "HIV-1 JR-CSF Env N276A (HIV-1 JR-CSF) (UniProt P20871)", "test": "cell-based or functional assay"}, "[24]": {"target": "HIV-1 Env of isolate JR-CSF (HIV-1) (UniProt P20871)", "test": "cell-based or functional assay"}, "[25]": {"target": "HIV-1 JR-CSF Env N262A (HIV-1 JR-CSF) (UniProt P20871)", "test": "cell-based or functional assay"}, "[26]": {"target": "HIV-1 JR-CSF Env N411A (HIV-1 (isolate JR-CSF)) (UniProt P20871)", "test": "cell-based or functional assay"}, "[27]": {"target": "HIV-1 JR-CSF Env T303A (HIV-1 JR-CSF) (UniProt P20871)", "test": "cell-based or functional assay"}, "[28]": {"target": "HIV-1 Env of isolate 92TH021 (HIV-1)", "test": "cell-based or functional assay"}, "[29]": {"target": "HIV-1 JR-CSF Env D325A (HIV-1 isolate JR-CSF) (UniProt P20871)", "test": "cell-based or functional assay"}, "[30]": {"target": "HIV-1 JR-CSF Env I309A (HIV-1 JR-CSF) (UniProt P20871)", "test": "cell-based or functional assay"}, "[31]": {"target": "Env of the clade A HIV-1 pseudoviruses of the cross-clade 162-pseudovirus panel (n = 26)", "test": "cell-based or functional assay"}, "[32]": {"target": "HIV-1 JR-CSF Env N339A (HIV-1 isolate JR-CSF) (UniProt P20871)", "test": "cell-based or functional assay"}, "[33]": {"target": "HIV-1 JR-CSF Env K343A (HIV-1 isolate JR-CSF) (UniProt P20871)", "test": "cell-based or functional assay"}, "[34]": {"target": "HIV-1 JR-CSF Env F210A (HIV-1 JR-CSF) (UniProt P20871)", "test": "cell-based or functional assay"}, "[35]": {"target": "HIV-1 JR-CSF Env E321aA (HIV-1 isolate JR-CSF) (UniProt P20871)", "test": "cell-based or functional assay"}, "[36]": {"target": "HIV-1 JR-CSF Env P313A (HIV-1 JR-CSF) (UniProt P20871)", "test": "cell-based or functional assay"}, "[37]": {"target": "Env of the clade C HIV-1 pseudoviruses of the cross-clade 162-pseudovirus panel (n = 27)", "test": "cell-based or functional assay"}, "[38]": {"target": "HIV-1 JR-CSF Env F317A (HIV-1 isolate JR-CSF) (UniProt P20871)", "test": "cell-based or functional assay"}, "[39]": {"target": "HIV-1 JR-CSF Env T388A (HIV-1 (isolate JR-CSF)) (UniProt P20871)", "test": "cell-based or functional assay"}},
  "data": [
    {"binder": "B1", "values": [
      {"measurement": "EC50", "setting": "[1]", "value": 0.1, "unit": "µg/mL"},
      {"measurement": "EC50", "setting": "[2]", "value": 0.3, "unit": "µg/mL"},
      {"measurement": "Fold IC50 increase relative to wild-type", "setting": "[3]", "value": 0.9, "unit": "fold"},
      {"measurement": "Fold IC50 increase relative to wild-type", "setting": "[4]", "value": 314, "unit": "fold"},
      {"measurement": "Fold IC50 increase relative to wild-type", "setting": "[5]", "value": "> 30", "unit": "fold"},
      {"measurement": "Median IC50 against viruses neutralized with an IC50 <50 µg/ml", "setting": "[6]", "value": 0.05, "unit": "µg/mL"},
      {"measurement": "Median IC50 against viruses neutralized with an IC50 <50 µg/ml", "setting": "[7]", "value": 0.04, "unit": "µg/mL"},
      {"measurement": "Fold IC50 increase relative to wild-type", "setting": "[8]", "value": 0.8, "unit": "fold"},
      {"measurement": "Median IC50 against viruses neutralized with an IC50 <50 µg/ml", "setting": "[9]", "value": 0.18, "unit": "µg/mL"},
      {"measurement": "Fold IC50 increase relative to wild-type", "setting": "[10]", "value": 0.5, "unit": "fold"},
      {"measurement": "Fold IC50 increase relative to wild-type", "setting": "[11]", "value": 0.5, "unit": "fold"},
      {"measurement": "Fold IC50 increase relative to wild-type", "setting": "[12]", "value": 0.5, "unit": "fold"},
      {"measurement": "Fold IC50 increase relative to wild-type", "setting": "[13]", "value": 0.6, "unit": "fold"},
      {"measurement": "Fold IC50 increase relative to wild-type", "setting": "[14]", "value": 0.6, "unit": "fold"},
      {"measurement": "Fold IC50 increase relative to wild-type", "setting": "[15]", "value": 1, "unit": "fold"},
      {"measurement": "Fold IC50 increase relative to wild-type", "setting": "[16]", "value": 0.9, "unit": "fold"},
      {"measurement": "Fold IC50 increase relative to wild-type", "setting": "[17]", "value": 0.8, "unit": "fold"},
      {"measurement": "Fold IC50 increase relative to wild-type", "setting": "[18]", "value": 0.7, "unit": "fold"},
      {"measurement": "Fold IC50 increase relative to wild-type", "setting": "[19]", "value": 1.2, "unit": "fold"},
      {"measurement": "Fold IC50 increase relative to wild-type", "setting": "[20]", "value": 0.6, "unit": "fold"},
      {"measurement": "Polyclonal Transfectant Neutralization Index (well 5141 B17)", "setting": "[21]", "value": 102},
      {"measurement": "Primary Neutralization Index (B cell culture well 5141 B17)", "setting": "[21]", "value": 654},
      {"measurement": "Fold IC50 increase relative to wild-type", "setting": "[22]", "value": 1.8, "unit": "fold"},
      {"measurement": "Fold IC50 increase relative to wild-type", "setting": "[23]", "value": 0.9, "unit": "fold"},
      {"measurement": "Polyclonal Transfectant Neutralization Index (well 5141 B17)", "setting": "[24]", "value": 102},
      {"measurement": "Primary Neutralization Index (B cell culture well 5141 B17)", "setting": "[24]", "value": 1410},
      {"measurement": "Fold IC50 increase relative to wild-type", "setting": "[25]", "value": 1, "unit": "fold"},
      {"measurement": "Fold IC50 increase relative to wild-type", "setting": "[26]", "value": 0.7, "unit": "fold"},
      {"measurement": "Fold IC50 increase relative to wild-type", "setting": "[27]", "value": "> 250", "unit": "fold"},
      {"measurement": "IC50 (µg/mL), pseudovirus neutralization", "setting": "[28]", "value": 0.197, "unit": "µg/mL"},
      {"measurement": "Polyclonal Transfectant Neutralization Index (well 5141 B17)", "setting": "[28]", "value": 2.74},
      {"measurement": "Primary Neutralization Index (B cell culture well 5141 B17)", "setting": "[28]", "value": 2.3},
      {"measurement": "Fold IC50 increase relative to wild-type", "setting": "[29]", "value": 0.5, "unit": "fold"},
      {"measurement": "Fold IC50 increase relative to wild-type", "setting": "[30]", "value": 1.2, "unit": "fold"},
      {"measurement": "Median IC50 against viruses neutralized with an IC50 <50 µg/ml", "setting": "[31]", "value": 0.01, "unit": "µg/mL"},
      {"measurement": "Fold IC50 increase relative to wild-type", "setting": "[32]", "value": 0.6, "unit": "fold"},
      {"measurement": "Fold IC50 increase relative to wild-type", "setting": "[33]", "value": 1.2, "unit": "fold"},
      {"measurement": "Fold IC50 increase relative to wild-type", "setting": "[34]", "value": 1.5, "unit": "fold"},
      {"measurement": "Fold IC50 increase relative to wild-type", "setting": "[35]", "value": 0.6, "unit": "fold"},
      {"measurement": "Fold IC50 increase relative to wild-type", "setting": "[36]", "value": 0.4, "unit": "fold"},
      {"measurement": "Median IC50 against viruses neutralized with an IC50 <50 µg/ml", "setting": "[37]", "value": 0.18, "unit": "µg/mL"},
      {"measurement": "Fold IC50 increase relative to wild-type", "setting": "[38]", "value": 1, "unit": "fold"},
      {"measurement": "Fold IC50 increase relative to wild-type", "setting": "[39]", "value": 0.6, "unit": "fold"}
    ]}
  ]
}
